# From patent publication US12599645B2, “Antibodies which bind to lysophosphatidic acid receptor 1 (LPAR1)” (DJS ANTIBODIES LTD, priority 2021, dated 2026)
# B1: Antibody 2: Murine germline sequence Antibody 1 was derived from; VH SEQ ID NO: 25, VL SEQ ID NO: 26 (antibody, V domains shown)
# VH: QVQLQQSGAELARPGASVKLSCKASGYTFTSYGISWVKQRTGQGLEWIGEIYPRSGNTYYNEKFKGKATLTADKSSSTAYMELRSLTSEDSAVYFCARDYGSSRYAMDYWGQGTSVTVSS
# VL: SIVMTQTPKFLPVSAGDRVTMTCKASQSVGNNVAWYQQKPGQSPKLLIYYASNRYTGVPDRFTGSGSGTDFTFTISSVQVEDLAVYFCQQHYSSPLTFGAGTKLELK
# B2: Antibody 6: Antibody 5 with LCDR3 reversion N93S; VH SEQ ID NO: 27, VL SEQ ID NO: 32 (antibody, V domains shown)
# VH: QVQLQQSGAELARPGASVKLSCKASGYTFTSSGISWVKQRTGQGLEWIGEILPRSGYTNYNEKFKGKATLTADKSSSTAYMELRSLTSEDSAVYFCARDFGSSRYAMDYWGQGTSVTVSS
# VL: SIVMTQTPKFLPVSAGDRVTMTCKASQSVRYNVAWYQQKPGQSPKLLIYYASNRYTGVPDRFTGSGSGTDFTFTISSVQVEDLAVYFCQHHYSSPLTFGAGTKLELK
# B3: Antibody 4: Hybridoma related to Antibody 1 with LCDR3 mutation Q90H; VH SEQ ID NO: 29, VL SEQ ID NO: 30 (antibody, V domains shown)
# VH: QVQLQQSGAELARPGASVKLSCKASGYTFTSSGISWVKQRTGQGLEWIGEIYPRSGYTNYNEKFKGKASLTADKSSRTAYMELRSLTSEDSAVYFCARDYDNSRYALDYWGQGTSVTVSS
# VL: SIVMTQTPKFLPVSAGDRVTMTCKASQSVGYNVAWYQQKTGQSPKLLIYYASNRYTGVPDRFTGSGSGTDFTFTISSVQVEDLAVYFCQHHYSSPLTFGAGTKLELK
# B4: Antibody 5: Antibody 3 with VL mutation Q90H; VH SEQ ID NO: 27, VL SEQ ID NO: 31 (antibody, V domains shown)
# VH: QVQLQQSGAELARPGASVKLSCKASGYTFTSSGISWVKQRTGQGLEWIGEILPRSGYTNYNEKFKGKATLTADKSSSTAYMELRSLTSEDSAVYFCARDFGSSRYAMDYWGQGTSVTVSS
# VL: SIVMTQTPKFLPVSAGDRVTMTCKASQSVRYNVAWYQQKPGQSPKLLIYYASNRYTGVPDRFTGSGSGTDFTFTISSVQVEDLAVYFCQHHYNSPLTFGAGTKLELK
# B5: Antibody 7: Humanised variant of Antibody 1; VH SEQ ID NO: 33, VL SEQ ID NO: 34 (antibody, V domains shown)
# VH: QVQLVQSGSELKKPGASVKVSCKASGYTFTSSGISWVRQAPGQGLEWMGEILPRSGYTNYNEGFTGRFVFSADKSVSTAYLQISSLKAEDTAVYYCARDFGSSRYAMDYWGQGTTVTVSS
# VL: SIQMTQSPSSLSASVGDRVTITCQASQSVRYNVAWYQQKPGKAPKLLIYYASNRYTGVPSRFSGSGSGTDFTFTISSLQPEDIATYFCQQHYNSPLTFGGGTKLEIK
# B6: Antibody 13: LCDR2 mutation T56D; VH SEQ ID NO: 37, VL SEQ ID NO: 38 (antibody, V domains shown)
# VH: QVQLVQSGSELKKPGASVKVSCKASGYTFTSSGISWVRQAPGQGLEWMGEILPRSGYTNYNQGFTGRFVFSADKSVSTAYLQISSLKAEDTAVYYCARDKGPSRYTMDYWGQGTTVTVSS
# VL: SIQMTQSPSSLSASVGDRVTITCQASQSVRYNVAWYQQKPGKAPKLLIYYASNRYDGVPSRFSGSGSGTDFTFTISSLQPEDIATYFCQHHYSSPLTFGGGTKLEIK
# B7: Antibody 9: Antibody 8 with HCDR2 mutation E61Q; VH SEQ ID NO: 35, VL SEQ ID NO: 39 (antibody, V domains shown)
# VH: QVQLVQSGSELKKPGASVKVSCKASGYTFTSSGISWVRQAPGQGLEWMGEILPRSGYTNYNQGFTGRFVFSADKSVSTAYLQISSLKAEDTAVYYCARDFGSSRYAMDYWGQGTTVTVSS
# VL: SIQMTQSPSSLSASVGDRVTITCQASQSVRYNVAWYQQKPGKAPKLLIYYASNRYTGVPSRFSGSGSGTDFTFTISSLQPEDIATYFCQHHYSSPLTFGGGTKLEIK
# Columns and labels:
# [1] = target: T1, LPAR1 (Homo sapiens, UniProt Q92633); assay: LPAR1 binding affinity during discovery and affinity maturation, method not stated; parameters: expressed in transfected cells; conditions: stated in words
# T1 sequence (Q92633 whole entry): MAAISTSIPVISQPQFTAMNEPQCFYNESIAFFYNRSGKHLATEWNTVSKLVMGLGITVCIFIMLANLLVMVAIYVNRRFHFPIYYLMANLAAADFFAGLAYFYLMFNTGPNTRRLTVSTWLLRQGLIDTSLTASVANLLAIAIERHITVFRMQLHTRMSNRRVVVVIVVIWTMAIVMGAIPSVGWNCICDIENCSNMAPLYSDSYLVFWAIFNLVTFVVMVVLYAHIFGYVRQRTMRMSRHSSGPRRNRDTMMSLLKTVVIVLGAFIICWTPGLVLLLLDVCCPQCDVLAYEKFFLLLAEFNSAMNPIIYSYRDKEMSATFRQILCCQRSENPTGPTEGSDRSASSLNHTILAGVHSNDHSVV
# [2] = system: Irrelevant GPCR; assay: Transient-transfection CIFAT, irrelevant GPCR control (fixed and live cells); assay type: binding; conditions: cells expressing irrelevant GPCR
# Method: (§1) Anti-LPAR1 antibodies of the invention were tested alongside commercially available anti-LPAR1 antibodies in the transient-transfection CIFAT assay for live cells (method 1.11) and in the transient-transfection CIFAT assay for fixed cells (method 1.11).
# The results are shown in FIGS. 11 and 12, wherein the scale bar represents 100 μm.
# [3] = target: T1, LPAR1; assay: Transient-transfection CIFAT, fixed/permeabilised cells; assay type: binding; parameters: HA; expressed in transfected cells; host or cells: CHO-K1 (transient, PEI); conditions: 5 μg/mL
# [4] = target: T1, LPAR1; assay: Transient-transfection CIFAT, live cells; assay type: binding; parameters: HA; expressed in transfected cells; host or cells: CHO-K1 (transient, PEI); conditions: 5 μg/mL or 20 μg/mL
# Method: CHO-K1 cells are seeded in multi well plates at 20,000 cells per 200 μL full growth medium and incubated for 24 hours at 37° C. In a sterile tube, 0.0309 uL/well PEI is diluted into 10 uL/well transfection medium (DMEM supplemented with 2 mM L-glutamine and Penicillin-Streptomycin). The diluted PEI is added to 100 ng/well DNA, before mixing immediately and incubating the mixture for 10 minutes at room temperature. 200 μL/well full growth medium is added to the PEI-DNA mixture, then medium in wells is taken off and 200 ul full growth medium/PEI/DNA mixture is added in the wells of the adherent cell plate. The plate is incubated for 24 hours at 37° C. The medium is discarded and replaced with 200 μL full growth medium. The plate is incubated for 24 hours at 37° C. Medium is removed from the wells and the cells incubated with primary antibody at varying concentrations for 75 minutes at 37° C. After washing and cell fixation with 4% PFA, the binding of the antibodies is detected using a goat anti-human detection antibody, incubated for 1 hour at room temperature. Fluorescence at 488 nm is measured.
# CHO-K1 cells were seeded in clear 96-well plates at 20,000 cells per 200 μL full growth medium and incubated for 24 hours at 37° C. The following day, in a sterile tube, 0.0309 uL/well PEI (Generon, MW 160,000) was diluted into 10 uL/well transfection medium (DMEM supplemented with 2 mM L-glutamine and Penicillin-Streptomycin). The diluted PEI was added to 100 ng/well DNA encoding the target protein (human LPAR1 (SEQ ID NO: 62) unless otherwise stated), before vortexing immediately and incubating the mixture for 10 minutes at room temperature. 200 μL/well full growth medium was added to the PEI-DNA mixture, then medium in wells was taken off and 200 ul full growth medium/PEI/DNA mixture was added in the wells of the adherent cell plate. The plate was incubated for 24 hours at 37° C. The next day, the medium was discarded and replaced with 200 μL full growth medium. The plate was incubated for 24 hours at 37° C. The following day, medium was removed from the wells and the cells incubated with primary antibody at varying concentrations for 75 minutes at 37° C. After washing and cell fixation with 4% PFA, the binding of the antibodies was detected using a goat anti-human Alexa Fluor 488 detection antibody (Invitrogen), incubated for 1 hour at room temperature. Fluorescence at 488 nm was measured using a BMG LABTECH ClarioStar plate reader and microscopy images were taken at 10× magnification.
# as §1
# [5] = target: T1, LPAR1; assay: Function of humanised and affinity matured variants, method not stated; parameters: expressed in transfected cells; conditions: stated in words
# [6] = system: renal fibrosis after UUO surgery; assay: Unilateral ureteral obstruction (UUO) efficacy model of renal fibrosis; assay type: in vivo, Hartley guinea pigs; conditions: Study 1; BMS-986020 30 mg/kg oral twice daily; antibody 20 mg/kg i.p.; Day 10
# Method: Unilateral ureteral obstruction (UUO) is a well-characterized disease model for renal fibrosis. The UUO model encompasses key pathophysiological features of chronic kidney disease; tubular necrosis and inflammatory cell infiltration within a relatively short period.
# Two unilateral ureteral obstruction (UUO) model efficacy studies were carried out in six-week old female Hartley guinea pigs. On Day 0, UUO surgery was performed. BMS-986020 was administered orally at a dose level of 30 mg/kg in a volume of 5 mL/kg twice daily at from Day −1 to 9. Isotype control and anti-LPAR1 antibody was intraperitoneally administered at a dose level of 6 mg/kg (low) or 20 mg/kg (high) in a volume of 10 mL/kg at Day −1, Day 0, Day 3 and Day 6. The viability, clinical signs, behaviour and individual body weight was monitored daily.
# The animals were sacrificed at Day 10. The ligated left kidney and right kidney weight were measured at sacrifice.
# Hydroxyproline is an amino acid, making up around 14% of collagen and acts as an important indicator of the severity of fibrosis. To quantify kidney hydroxyproline content, frozen posterior right section of left kidney samples were processed by an alkaline-acid hydrolysis method. AC buffer (2.2M acetic acid/0.48M citric acid) was added to the samples, followed by centrifugation to collect the supernatant. A standard curve of hydroxyproline was constructed with serial dilutions of trans-4-hydroxy-L-proline (Sigma-Aldrich, USA) starting at 16 μg/mL. The prepared samples and standards were mixed with chloramine T solution (Nacalai Tesque Inc., Japan) and incubated for 25 minutes at room temperature. The samples were then mixed with Ehrlich's solution and heated at 65° C. for 20 minutes to develop the colour. After samples were cooled on ice and centrifuged to remove precipitates, the optical density of each supernatant was measured at 560 nm. The concentrations of hydroxyproline were calculated from the hydroxyproline standard curve. Protein concentrations of kidney samples were determined using a BCA protein assay kit (Thermo Fisher Scientific, USA) and used to normalize the calculated hydroxyproline values. Kidney hydroxyproline contents were expressed as μg per mg protein.
# The left kidney was fixed in Bouin's solution and embedded in paraffin. For PAS staining, sections were cut from paraffin blocks and stained with Schiff's reagent (FUJIFILM Wako pure chemical corporation, Japan) according to the manufacturer's instructions. To visualize collagen deposition, kidney sections were stained using picro-Sirius red solution (FUJIFILM Wako pure chemical corporation). For quantification of interstitial and medulla fibrosis area, bright field images in the corticomedullary region were captured using a digital camera (DFC295) at 200-fold magnification, and the positive areas in 5 fields/section were measured using ImageJ software (National Institute of Health, USA).
molecule,measurement,setting,value
B1,binding affinity for LPAR1,[1],extremely low binding affinity
B2,binding affinity for LPAR1,[1],large affinity gain
B3,Irrelevant GPCR cell staining,[2],Irrelevant GPCR-No significant cell staining
same,LPAR1 fixed cell staining,[3],LPAR1-Significant fixed and live cell staining
same,LPAR1 live cell staining,[4],LPAR1-Significant fixed and live cell staining
B4,binding affinity for LPAR1,[1],improved affinity
B5,function,[5],"best in terms of expression, stability and function"
B6,Irrelevant GPCR cell staining,[2],Irrelevant GPCR-No significant cell staining
same,LPAR1 fixed cell staining,[3],LPAR1-Significant fixed and live cell staining
same,binding affinity for LPAR1,[1],minimal effect on affinity
same,kidney hydroxyproline,[6],No observable difference
same,LPAR1 live cell staining,[4],LPAR1-Significant fixed and live cell staining
B7,function,[5],significantly enhanced the function
